The values that follow come from patent publication US20090035322A1 (Regeneron, published 2009).

To fix the notation:
T1: mutant human CD20 #6 (Y77F, N166D) (human, UniProt P11836 1-297)
T1 construct: Stably expressed on MG87 cells
T1 chain: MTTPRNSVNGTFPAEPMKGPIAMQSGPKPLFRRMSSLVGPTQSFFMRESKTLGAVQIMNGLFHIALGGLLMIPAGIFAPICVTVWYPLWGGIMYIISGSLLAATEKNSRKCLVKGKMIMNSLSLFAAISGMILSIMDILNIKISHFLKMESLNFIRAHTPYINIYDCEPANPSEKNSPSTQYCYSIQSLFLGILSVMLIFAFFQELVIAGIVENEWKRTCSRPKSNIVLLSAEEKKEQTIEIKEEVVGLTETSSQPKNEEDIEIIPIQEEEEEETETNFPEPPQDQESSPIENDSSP

T2: mutant human CD20 #3 (A170S, P172S) (human, UniProt P11836 1-297)
T2 construct: Stably expressed on MG87 cells
T2 chain: T1 chain with F77Y, D166N, A170S, P172S

T3: mutant human CD20 #9 (N163D, N166D) (human, UniProt P11836 1-297)
T3 construct: Stably expressed on MG87 cells
T3 chain: T1 chain with F77Y, N163D

T4: mutant human CD20 #8 (Y77F, N163D, N166D) (human, UniProt P11836 1-297)
T4 construct: Stably expressed on MG87 cells
T4 chain: T1 chain with N163D

T5: mutant human CD20 #10 (A157V) (human, UniProt P11836 1-297)
T5 construct: Stably expressed on MG87 cells
T5 sequence: T1 chain with F77Y, A157V, D166N

T6: mutant human CD20 #5 (P172S) (human, UniProt P11836 1-297)
T6 construct: Stably expressed on MG87 cells
T6 sequence: T1 chain with F77Y, D166N, P172S

T7: human CD20 (human, UniProt P11836 1-297)
T7 sequence: T1 chain with F77Y, D166N

B1: 9D4-7 (antibody, V domains shown)
VH: EVQLVESGGGLVQPGRSLRLSCAASGFTFYDYAMHWVRQAPGKGLEWVSGISWNSDTIGYADSVKGRFTISRDNAKNSLYLQMNSLRAEDTALYYCTKDGSYGHFYSGLDVWGQGTTVTVSS
VL: EIVLTQSPATLSLSPGERATLSCRASQSVSSYLAWYQQKPGQAPRLLIYVASNRATGIPARFSGSGSGTDFTLTISSLEPDDFAVYYCQQRYYWPLTFGGGTKVEIK
notes: Fully human IgG, constant region not specified; also called 9D4-7N
B2: 8G6-5 (antibody, V domains shown)
VH: EVQLAESGGDLVQSGRSLRLSCAASGITFHDYAMHWVRQPPGKGLEWVSGISWNSDYIGYADSVKGRFTISRDNAKKSLYLQMNSLRPDDTALYYCVKDFHYGSGSNYGMDVWGQGTTVTVSP
VL: EIVMTQSPATLSMSPGERATLSCRASQSVSRNLAWYQQKVGQAPRLLISGASTRATGIPARFSGSGSGTEFTLTINSLQSEDFAVYYCQQSNDWPLTFGQGTRLEIK
notes: Fully human IgG, constant region not specified; also called 8G6-5N
B3: 7E1-13 (antibody, V domains shown)
VH: EVQLVESGGGLVQPGRSLRLSCTASGFTFGDFPMHWVRQAPGKGLEWVSGITWNSGSIVYADSVKGRFTISRDNAKNSLYLQMNSLRTEDTALYYCAKDSHYGSGNFYYYYYGMDVWGQGTTVTVSS
VL: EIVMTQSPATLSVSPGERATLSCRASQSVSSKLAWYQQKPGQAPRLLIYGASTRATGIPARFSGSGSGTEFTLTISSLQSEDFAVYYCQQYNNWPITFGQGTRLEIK
notes: Fully human IgG, constant region not specified; also called 7E1-13N
B4: 10F2-13 (antibody, V domains shown)
VH: EEQLVESGGDLVQPGRSLRLSCAASGFTFHDYTMHWVRQAPGKGLEWVSGISWNSGSLGYADSVKGRFTISRDNAKKSLYLQMNSLRAEDTALYYCAKDPSYGSGSYHSYYGMDVWGQGTTVTVSS
VL: EIVLTQSPATLSLSPGERATLSCWASQSISRYLVWYQQKCGQAPRLLIYEASKRATGIPVRFSGSGSGTDFTLTISSLESEDFAVYYCQQRFNWPLTFGGGTKVEIK
notes: Fully human IgG, constant region not specified; also called 10F2-13N; ab 10F2-13
B5: 3B9-10 (antibody, V domains shown)
VH: EVQLVESGGGLVQPGRSLRLSCVASGFTFNDYAMHWVRQAPGKGLEWVSVISWNSDSIGYADSVKGRFTISRDNAKNSLYLQMHSLRAEDTALYYCAKDNHYGSGSYYYYQYGMDVWGQGTTVTVSS
VL: EIVMTQSPATLSVSPGERATLSCRASQSVSSNLAWYQQKPGQAPRLLIYGTSTRATGIPARFSGSGSGTEFTLTISSLQSEDFAVYYCQQYNNWPLTFGGGTKVEIK
notes: Fully human IgG, constant region not specified; also called 3B9-10N
B6: 6F6-1 (antibody, V domains shown)
VH: AVQLVESGGGLVQPGRSLRLSCAASGFTFRDYAMHWVRQGPGKGLEWVSGISWNTDYIGYADSVKGRFTISRDNAKNSLYLQMNSLRPEDTALYYCAKDARYGRDNYYGMDVWGQGTTVTVSS
VL: B5 VL with S31H, T51A, S52Y, A60D, S65T, Y86F
notes: Fully human IgG, constant region not specified; also called 6F6-1N
B7: 9E4-20 (antibody, V domains shown)
VH: B6 VH with A1E, R30Y, G40A, T55S, P88A, D105N, Q115P
VL: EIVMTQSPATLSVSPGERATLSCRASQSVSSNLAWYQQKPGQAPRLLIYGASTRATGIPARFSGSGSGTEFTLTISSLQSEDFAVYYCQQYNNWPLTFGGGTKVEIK
notes: Fully human IgG, constant region not specified; also called 9E4-20N
B8: 9C3-8 (antibody, V domains shown)
VH: B5 VH with V23A, T28S, N30H, V50G, I58L, H84N, Y107H, Q111K
VL: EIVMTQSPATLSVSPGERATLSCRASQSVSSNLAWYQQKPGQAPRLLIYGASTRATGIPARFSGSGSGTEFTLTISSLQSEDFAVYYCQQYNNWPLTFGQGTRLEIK
notes: Fully human IgG, constant region not specified; also called 9C3-8N

Positions count from the first letter of the chain named.

The first assay concerns the target T1, mutant human CD20 #6 (Y77F, N166D). The assay can be described thus: FACS, mutant-hCD20 MG87 cells; 100%=best antibody. How it is done:
(§1) Briefly, approximately 1×10⁶ cells from each stably transfected cell line expressing a mutant human CD20 were collected and incubated with each anti-human antibody, at 10 μg/ml, on ice for 1 hr, followed by incubation with APC-conjugated goat anti-human IgG (Jackson Immunolabs), at 10 μg/ml, on ice for 45 min. For each antibody, binding to each mutant human CD20 was assessed by flow cytometry.
On the technique in general: In flow cytometry, cells or beads pass a laser one at a time.
Take B1: the “Percent of Binding to Mutant Human CD20” value was 0%.

For B2, the “Percent of Binding to Mutant Human CD20” value was 5%.

On to B3, for which the “Percent of Binding to Mutant Human CD20” value is 1%.

For B4, the “Percent of Binding to Mutant Human CD20” value worked out at 1%.

Take B5: the “Percent of Binding to Mutant Human CD20” value is 1%.

Regarding B6, the “Percent of Binding to Mutant Human CD20” value turned out to be 16%.

B7: the “Percent of Binding to Mutant Human CD20” value was determined as 1%.

For the molecule B8, the “Percent of Binding to Mutant Human CD20” value came out at 0%.

The target of a further assay is T2, mutant human CD20 #3 (A170S, P172S). The assay can be described thus: FACS, mutant-hCD20 MG87 cells; 100%=best antibody. How it is done:
as §1
On to B1, for which the “Percent of Binding to Mutant Human CD20” value was determined as 70%.

In the case of B2, the “Percent of Binding to Mutant Human CD20” value was 65%.

For B3, the “Percent of Binding to Mutant Human CD20” value came to 95%.

Regarding B4, the “Percent of Binding to Mutant Human CD20” value was determined as 55%.

With B5, the “Percent of Binding to Mutant Human CD20” value came to 67%.

For B6, the “Percent of Binding to Mutant Human CD20” value is 100%.

Consider B7, for which the “Percent of Binding to Mutant Human CD20” value is 57%.

Turning to B8, the “Percent of Binding to Mutant Human CD20” value came to 84%.

In a further assay the target is T3, mutant human CD20 #9 (N163D, N166D). The assay can be described thus: FACS, mutant-hCD20 MG87 cells; 100%=best antibody. How it is done: as §1
Turning to B1, the “Percent of Binding to Mutant Human CD20” value was found to be 4%.

For B2, the “Percent of Binding to Mutant Human CD20” value came to 4%.

With B3, the “Percent of Binding to Mutant Human CD20” value was 4%.

As to B4, the “Percent of Binding to Mutant Human CD20” value worked out at 4%.

Take B5: the “Percent of Binding to Mutant Human CD20” value worked out at 4%.

B6: the “Percent of Binding to Mutant Human CD20” value turned out to be 4%.

Take B7: the “Percent of Binding to Mutant Human CD20” value is 3%.

Take B8: the “Percent of Binding to Mutant Human CD20” value stood at 3%.

For the next assay, the target named is T4, mutant human CD20 #8 (Y77F, N163D, …). Kind of assay: FACS, mutant-hCD20 MG87 cells; 100%=best antibody. How it is done: as §1
On to B1, for which the “Percent of Binding to Mutant Human CD20” value turned out to be 0%.

Regarding B2, the “Percent of Binding to Mutant Human CD20” value was found to be 0%.

In the case of B3, the “Percent of Binding to Mutant Human CD20” value was 0%.

As for B4, the “Percent of Binding to Mutant Human CD20” value worked out at 0%.

Consider B5, for which the “Percent of Binding to Mutant Human CD20” value was determined as 0%.

Consider B6, for which the “Percent of Binding to Mutant Human CD20” value was determined as 0%.

Regarding B7, the “Percent of Binding to Mutant Human CD20” value was determined as 0%.

In the case of B8, the “Percent of Binding to Mutant Human CD20” value is 0%.

A further assay concerns the target T5, mutant human CD20 #10 (A157V). The assay can be described thus: FACS, mutant-hCD20 MG87 cells; 100%=best antibody. How it is done:
as §1
As for B1, the “Percent of Binding to Mutant Human CD20” value was determined as 75%.

With B2, the “Percent of Binding to Mutant Human CD20” value was found to be 96%.

Take B3: the “Percent of Binding to Mutant Human CD20” value turned out to be 92%.

In the case of B4, the “Percent of Binding to Mutant Human CD20” value was 87%.

Consider B5, for which the “Percent of Binding to Mutant Human CD20” value was 79%.

As for B6, the “Percent of Binding to Mutant Human CD20” value stood at 98%.

In the case of B7, the “Percent of Binding to Mutant Human CD20” value is 76%.

B8: the “Percent of Binding to Mutant Human CD20” value is 77%.

For another assay, the target named is T6, mutant human CD20 #5 (P172S). The assay can be described thus: FACS, mutant-hCD20 MG87 cells; 100%=best antibody. How it is done:
as §1
In the case of B1, the “Percent of Binding to Mutant Human CD20” value was 66%.

Regarding B2, the “Percent of Binding to Mutant Human CD20” value worked out at 76%.

In the case of B3, the “Percent of Binding to Mutant Human CD20” value turned out to be 85%.

Regarding B4, the “Percent of Binding to Mutant Human CD20” value was determined as 69%.

Take B5: the “Percent of Binding to Mutant Human CD20” value turned out to be 72%.

B6: the “Percent of Binding to Mutant Human CD20” value came out at 100%.

For the molecule B7, the “Percent of Binding to Mutant Human CD20” value is 57%.

Consider B8, for which the “Percent of Binding to Mutant Human CD20” value came out at 76%.

The next assay has as its target T7, human CD20. Kind of assay: cell-based or functional assay.
B1: the “CDC, Daudi EC50” value turned out to be 0.22 nM and the “CDC, RL EC50” value worked out at 0.83 nM.

B2: the “CDC, Daudi EC50” value worked out at 0.21 nM and the “CDC, RL EC50” value was 1.06 nM.

Regarding B3, the “CDC, Daudi EC50” value is 1.59 nM and the “CDC, RL EC50” value was found to be 5.81 nM.

For the molecule B4, the “CDC, Daudi EC50” value came to 0.17 nM and the “CDC, RL EC50” value turned out to be 0.36 nM.

For B5, the “CDC, Daudi EC50” value is 1.86 nM and the “CDC, RL EC50” value was 8.84 nM.

In the case of B6, the “CDC, Daudi EC50” value was found to be 0.56 nM and the “CDC, RL EC50” value was determined as 1.2 nM.

As for B7, the “CDC, Daudi EC50” value worked out at 1.53 nM and the “CDC, RL EC50” value came to 1.7 nM.

Consider B8, for which the “CDC, Daudi EC50” value worked out at 2.22 nM and the “CDC, RL EC50” value was 11.1 nM.
